Test results reported in the supplement of paper PMC10724198.

Assays:
Saccharomyces cerevisiae [1] = assay: protein stability index of tFT-peptide fusion in deletion strain of DOA10 (PSI (0-1 scale)); higher = more stable (slower turnover)
Procedure: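 MPS profiling in S. cerevisiae of two library types built from selected 12-aa C-degron peptides (IN1, IN2, LN1, LN3, VN2, R1-R5, W1-W3, Atg1 and Rpa12 C-termini): saturation mutagenesis libraries and C-terminal +1 capping libraries (13 aa). Each peptide is fused to the C-terminus of a sfGFP-mCherry timer, after a GGGS linker. Cells are FACS-sorted into 8 mCherry/sfGFP bins and sequenced. PSI runs from 0 (unstable) to 1 (stable), measured once in wild type and in the das1Δ or doa10Δ background.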

Saccharomyces cerevisiae [2] = assay: protein stability index of tFT-peptide fusion in wild type (PSI (0-1 scale)); higher = more stable (slower turnover); details: genetic background: wild type
Saccharomyces cerevisiae [3] = assay: protein stability index of tFT-peptide fusion in deletion strain of DAS1 (PSI (0-1 scale)); higher = more stable (slower turnover)
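For protein stability index of tFT-peptide fusion in deletion strain of DAS1 in this document: PSI is a weighted mean of each variant's read distribution over the sorted stability bins, computed only for variants having over 10 reads in total.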
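For protein stability index of tFT-peptide fusion in deletion strain of DOA10 in this document: PSI per variant is the weighted mean of its sequencing read distribution over the sorted stability bins, counting only variants with over 10 reads summed across bins.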
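For protein stability index of tFT-peptide fusion in wild type in this document: PSI derived as read-weighted mean over the 8 sorting bins, only variants exceeding 10 total reads kept, mCherry placed adjacent to the peptide and sfGFP distal.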

Row | Sequence | protein stability index (Saccharomyces cerevisiae [1]) | protein stability index (Saccharomyces cerevisiae [2]) | protein stability index (Saccharomyces cerevisiae [3])
1 | AATLPMCPLLLR | 0.684 | 0.377 | –
2 | AIDLPMCPLLLR | 0.651 | 0.319 | –
3 | AIQLPMCPLLLR | 0.649 | 0.213 | –
4 | AITLEMCPLLLR | 0.667 | 0.372 | –
5 | AITLHMCPLLLR | 0.62 | 0.271 | –
6 | AITLPCCPLLLR | 0.659 | 0.236 | –
7 | AITLPMCNLLLR | 0.683 | 0.29 | –
8 | AITLPMCPFLLR | 0.661 | 0.624 | –
9 | AITLPMCPHLLR | 0.687 | 0.645 | –
10 | AITLPMCPLALR | 0.643 | 0.577 | –
11 | AITLPMCPLELR | 0.682 | 0.641 | –
12 | AITLPMCPLLCR | 0.265 | 0.238 | –
13 | AITLPMCPLLIR | 0.427 | 0.219 | –
14 | AITLPMCPLLLQ | 0.654 | 0.567 | –
15 | AITLPMCPLLLRG | 0.55 | 0.31 | –
16 | AITLPMCPLLLW | 0.646 | 0.436 | –
17 | AITLPMCPLLLY | 0.517 | 0.404 | –
18 | AITLPMCPLLNR | 0.671 | 0.644 | –
19 | AIWLPMCPLLLR | 0.657 | 0.224 | –
20 | CAVSLPILLFFR | 0.627 | 0.0547 | –
21 | CLESLPILLFFR | 0.65 | 0.192 | –
22 | CLGSLPILLFFR | 0.628 | 0.0966 | –
23 | CLMSLPILLFFR | 0.591 | 0.0514 | –

Row | Sequence | protein stability index (Saccharomyces cerevisiae [1]) | protein stability index (Saccharomyces cerevisiae [2]) | protein stability index (Saccharomyces cerevisiae [3])
24 | CLVDLPILLFFR | 0.635 | 0.0636 | –
25 | CLVILPILLFFR | 0.456 | 0.0975 | –
26 | CLVSDPILLFFR | 0.656 | 0.589 | –
27 | CLVSEPILLFFR | 0.643 | 0.499 | –
28 | CLVSLPIGLFFR | 0.674 | 0.101 | –
29 | CLVSLPILEFFR | 0.672 | 0.637 | –
30 | CLVSLPILLCFR | 0.564 | 0.0846 | –
31 | CLVSLPILLFFN | 0.288 | 0.118 | –
32 | CLVSLPILLFFRC | 0.45 | 0.0599 | –
33 | CLVSLPILLFFRG | 0.564 | 0.0927 | –
34 | CLVSLPILLFFRI | 0.469 | 0.0568 | –
35 | CLVSLPILLFFRM | 0.458 | 0.0495 | –
36 | CLVSLPILLFFS | 0.467 | 0.297 | –
37 | CLVSLPILLFQR | 0.583 | 0.515 | –
38 | CLVSLPILLNFR | 0.655 | 0.424 | –
39 | CLVSLPILLWFR | 0.567 | 0.0579 | –
40 | CLVSLPIWLFFR | 0.58 | 0.0275 | –
41 | CLVSRPILLFFR | 0.638 | 0.115 | –
42 | CLVTLPILLFFR | 0.576 | 0.048 | –
43 | CLVYLPILLFFR | 0.404 | 0.0623 | –
44 | CLYMCSVGCWFR | 0.584 | 0.276 | –
45 | CTVSLPILLFFR | 0.619 | 0.0564 | –
46 | DSLRVLLPLYFR | 0.676 | 0.33 | –

Row | Sequence | protein stability index (Saccharomyces cerevisiae [1]) | protein stability index (Saccharomyces cerevisiae [2]) | protein stability index (Saccharomyces cerevisiae [3])
47 | GITLPMCPLLLR | 0.668 | 0.099 | –
48 | GLKMCSVGCWFR | 0.678 | 0.247 | –
49 | GLYMCKVGCWFR | 0.631 | 0.396 | –
50 | GLYMCSIGCWFR | 0.602 | 0.231 | –
51 | GLYMCSKGCWFR | 0.673 | 0.489 | –
52 | GLYMCSVECWFR | 0.465 | 0.456 | –
53 | GLYMCSVGCWFQ | 0.504 | 0.476 | –
54 | GLYMCSVGCWFRY | 0.619 | 0.173 | –
55 | GLYMCSVGCWFV | 0.467 | 0.4 | –
56 | GLYMCSVGCWKR | 0.66 | 0.612 | –
57 | GLYMCSVGCWSR | 0.622 | 0.584 | –
58 | GLYMCSVGCWYR | 0.611 | 0.407 | –
59 | RLIQPLFVQFLN | – | 0.0762 | 0.621
60 | RLIQPLPDQFLN | – | 0.61 | 0.631
61 | RLIQPLPVCFLN | – | 0.0773 | 0.582
62 | RLIQPLPVGFLN | – | 0.322 | 0.587
63 | RLIQPLPVQFKN | – | 0.618 | 0.648
64 | RLIQPLPVQFLE | – | 0.633 | 0.743
65 | RLIQPLPVQFLNC | – | 0.486 | 0.635
66 | RLIQPLPVQFLNI | – | 0.627 | 0.644
67 | RLIQPLPVQFLNL | – | 0.636 | 0.656
68 | RLIQPLPVQFLNS | – | 0.385 | 0.658
69 | RLIQPLPVQFLNT | – | 0.614 | 0.639

Row | Sequence | protein stability index (Saccharomyces cerevisiae [1]) | protein stability index (Saccharomyces cerevisiae [2]) | protein stability index (Saccharomyces cerevisiae [3])
70 | RLIQPLPVQFLNV | – | 0.599 | 0.621
71 | RLIQPLPVQFLT | – | 0.223 | 0.59
72 | RLIQPLPVQFQN | – | 0.366 | 0.548
73 | RLIQPLPVQNLN | – | 0.447 | 0.645
74 | RLIQPLPVQPLN | – | 0.587 | 0.579
75 | RLIQPLPYQFLN | – | 0.0818 | 0.621
76 | RLIQPLRVQFLN | – | 0.06 | 0.593
77 | RLIQPLWVQFLN | – | 0.0634 | 0.569
78 | RLIQPMPVQFLN | – | 0.0562 | 0.607
79 | RLIQPPPVQFLN | – | 0.06 | 0.641
80 | RLIQPTPVQFLN | – | 0.192 | 0.563
81 | RLIQRLPVQFLN | – | 0.0385 | 0.646
82 | RLIQSLPVQFLN | – | 0.0478 | 0.574
83 | RLIQVLPVQFLN | – | 0.0583 | 0.611
84 | RLISPLPVQFLN | – | 0.0608 | 0.622
85 | RLIYPLPVQFLN | – | 0.0272 | 0.58
86 | RLWQPLPVQFLN | – | 0.069 | 0.608
87 | RYIQPLPVQFLN | – | 0.0617 | 0.564
88 | VAGAVGGWRLVG | – | 0.142 | 0.681
89 | VCGAVGGWRLVG | – | 0.118 | 0.686
90 | VIGAVGGWRLVG | – | 0.115 | 0.689
91 | VRDAVGGWRLVG | – | 0.172 | 0.654
92 | VRFAVGGWRLVG | – | 0.0977 | 0.678

Row | Sequence | protein stability index (Saccharomyces cerevisiae [1]) | protein stability index (Saccharomyces cerevisiae [2]) | protein stability index (Saccharomyces cerevisiae [3])
93 | VRGAFGGWRLVG | – | 0.144 | 0.668
94 | VRGAHGGWRLVG | – | 0.146 | 0.662
95 | VRGAMGGWRLVG | – | 0.202 | 0.746
96 | VRGASGGWRLVG | – | 0.172 | 0.674
97 | VRGAVCGWRLVG | – | 0.125 | 0.673
98 | VRGAVGGQRLVG | – | 0.643 | 0.677
99 | VRGAVGGVRLVG | – | 0.645 | 0.654
100 | VRGAVGGWCLVG | – | 0.441 | 0.674
101 | VRGAVGGWGLVG | – | 0.28 | 0.616
102 | VRGAVGGWPLVG | – | 0.596 | 0.692
103 | VRGAVGGWREVG | – | 0.504 | 0.654
104 | VRGAVGGWRLVGA | – | 0.524 | 0.692
105 | VRGAVGGWRLVGD | – | 0.646 | 0.694
106 | VRGAVGGWRLVGF | – | 0.666 | 0.693
107 | VRGAVGGWRLVGY | – | 0.638 | 0.682
108 | VRGAVGGWRLVK | – | 0.668 | 0.689
109 | VRGAVGGWRQVG | – | 0.189 | 0.677
110 | VRGAVGSWRLVG | – | 0.157 | 0.68
111 | VRGGVGGWRLVG | – | 0.206 | 0.683
112 | VRGSVGGWRLVG | – | 0.14 | 0.681
113 | VRGYVGGWRLVG | – | 0.174 | 0.69
114 | VRHAVGGWRLVG | – | 0.116 | 0.671
115 | YDKRNHLIKLLN | – | 0.138 | 0.581
